From the supplement of paper PMC9112550, “Optimization of the antimicrobial peptide Bac7 by deep mutational scanning” (BMC Biology, 2022)

Test system: Escherichia coli TOP10
Assay: shrunken log2 fold change of peptide-encoding DNA abundance (4.5 h post-induction vs induction); higher = less antimicrobial activity (less host growth inhibition)
Details: time post-induction: 4.5 h; library: site-saturation at positions 5, 18, 19, 20
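Further: peptides expressed intracellularly from a pBAD plasmid library in pooled LB shake-flask culture, induced with 0.3% L-arabinose, DNA abundance read by NGS, three biological replicates, DESeq2 with apeglm shrinkage.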

Sequence: RRIRFRPPRLPRPRPRPIPNPRP
- shrunken log2 fold change: -0.361

Sequence: RRIRKRPPRLPRPRPRPDHEPRP
- shrunken log2 fold change: -0.013

Sequence: RRIRCRPPRLPRPRPRPRARPRP
- shrunken log2 fold change: 0.708

Sequence: RRIRDRPPRLPRPRPRPMKGPRP
- shrunken log2 fold change: 0.0395

Sequence: RRIRWRPPRLPRPRPRPVLGPRP
- shrunken log2 fold change: 0.241

Sequence: RRIRERPPRLPRPRPRPEQAPRP
- shrunken log2 fold change: 0.143

Sequence: RRIRHRPPRLPRPRPRPSLFPRP
- shrunken log2 fold change: -0.625

Sequence: RRIRTRPPRLPRPRPRPWFGPRP
- shrunken log2 fold change: 0.0864

Sequence: RRIRQRPPRLPRPRPRPQMVPRP
- shrunken log2 fold change: 0.00426

Sequence: RRIRWRPPRLPRPRPRPKMPPRP
- shrunken log2 fold change: 1.71

Sequence: RRIRFRPPRLPRPRPRPKKNPRP
- shrunken log2 fold change: 0.0769

Sequence: RRIRSRPPRLPRPRPRPPHEPRP
- shrunken log2 fold change: 0.229

Sequence: RRIRHRPPRLPRPRPRPATHPRP
- shrunken log2 fold change: -0.105

Sequence: RRIRHRPPRLPRPRPRPKMRPRP
- shrunken log2 fold change: 0.312

Sequence: RRIRPRPPRLPRPRPRPFFVPRP
- shrunken log2 fold change: 0.064

Sequence: RRIRERPPRLPRPRPRPNQKPRP
- shrunken log2 fold change: -0.108

Sequence: RRIRARPPRLPRPRPRPMFNPRP
- shrunken log2 fold change: -0.132

Sequence: RRIRSRPPRLPRPRPRPPSCPRP
- shrunken log2 fold change: -0.0434

Sequence: RRIRERPPRLPRPRPRPFEIPRP
- shrunken log2 fold change: -0.203

Sequence: RRIRRRPPRLPRPRPRPEGVPRP
- shrunken log2 fold change: 0.874

Sequence: RRIRARPPRLPRPRPRPWAVPRP
- shrunken log2 fold change: 0.295

Sequence: RRIRSRPPRLPRPRPRPEYVPRP
- shrunken log2 fold change: 0.0646

Sequence: RRIRHRPPRLPRPRPRPRKHPRP
- shrunken log2 fold change: -0.113

Sequence: RRIRRRPPRLPRPRPRPQRWPRP
- shrunken log2 fold change: -0.0703

Sequence: RRIRTRPPRLPRPRPRPTVGPRP
- shrunken log2 fold change: 0.155

Sequence: RRIRERPPRLPRPRPRPILPPRP
- shrunken log2 fold change: -0.182

Sequence: RRIRGRPPRLPRPRPRPDFIPRP
- shrunken log2 fold change: 0.157

Sequence: RRIRIRPPRLPRPRPRPPRIPRP
- shrunken log2 fold change: 0.333

Sequence: RRIRHRPPRLPRPRPRPWIRPRP
- shrunken log2 fold change: -0.0813

Sequence: RRIRTRPPRLPRPRPRPPAGPRP
- shrunken log2 fold change: 0.279

Sequence: RRIRMRPPRLPRPRPRPPWIPRP
- shrunken log2 fold change: 0.248

Sequence: RRIRCRPPRLPRPRPRPWGGPRP
- shrunken log2 fold change: 0.36

Sequence: RRIRRRPPRLPRPRPRPFCQPRP
- shrunken log2 fold change: -0.252

Sequence: RRIRSRPPRLPRPRPRPVNYPRP
- shrunken log2 fold change: -0.0921

Sequence: RRIRGRPPRLPRPRPRPSNRPRP
- shrunken log2 fold change: 0.113

Sequence: RRIRPRPPRLPRPRPRPNLCPRP
- shrunken log2 fold change: 0.138

Sequence: RRIRERPPRLPRPRPRPSHCPRP
- shrunken log2 fold change: 0.0392

Sequence: RRIRVRPPRLPRPRPRPKNDPRP
- shrunken log2 fold change: 0.011

Sequence: RRIRIRPPRLPRPRPRPTTRPRP
- shrunken log2 fold change: -0.0487

Sequence: RRIRMRPPRLPRPRPRPLICPRP
- shrunken log2 fold change: 0.108

Sequence: RRIRARPPRLPRPRPRPIPQPRP
- shrunken log2 fold change: -0.0224

Sequence: RRIRWRPPRLPRPRPRPNSAPRP
- shrunken log2 fold change: 0.104

Sequence: RRIRRRPPRLPRPRPRPYRTPRP
- shrunken log2 fold change: -0.394

Sequence: RRIRHRPPRLPRPRPRPRHPPRP
- shrunken log2 fold change: 0.0823

Sequence: RRIRTRPPRLPRPRPRPIHRPRP
- shrunken log2 fold change: -0.00127

Sequence: RRIRYRPPRLPRPRPRPWFLPRP
- shrunken log2 fold change: -1.18

Sequence: RRIRGRPPRLPRPRPRPEFNPRP
- shrunken log2 fold change: 0.669

Sequence: RRIRPRPPRLPRPRPRPKTLPRP
- shrunken log2 fold change: -0.0149

Sequence: RRIRVRPPRLPRPRPRPTRCPRP
- shrunken log2 fold change: 0.404

Sequence: RRIRPRPPRLPRPRPRPSVMPRP
- shrunken log2 fold change: -0.123

Sequence: RRIRMRPPRLPRPRPRPHAIPRP
- shrunken log2 fold change: 0.224

Sequence: RRIRARPPRLPRPRPRPDGRPRP
- shrunken log2 fold change: 0.197

Sequence: RRIRVRPPRLPRPRPRPYIDPRP
- shrunken log2 fold change: -0.372

Sequence: RRIRWRPPRLPRPRPRPCSVPRP
- shrunken log2 fold change: 0.0151

Sequence: RRIRKRPPRLPRPRPRPDIHPRP
- shrunken log2 fold change: 0.167

Sequence: RRIRCRPPRLPRPRPRPMCPPRP
- shrunken log2 fold change: -0.312

Sequence: RRIRQRPPRLPRPRPRPYRFPRP
- shrunken log2 fold change: 0.0797

Sequence: RRIRQRPPRLPRPRPRPTPIPRP
- shrunken log2 fold change: 0.182

Sequence: RRIRGRPPRLPRPRPRPHCQPRP
- shrunken log2 fold change: -0.058

Sequence: RRIRDRPPRLPRPRPRPDFEPRP
- shrunken log2 fold change: 1.35

Sequence: RRIRHRPPRLPRPRPRPEQHPRP
- shrunken log2 fold change: 1.73

Sequence: RRIRNRPPRLPRPRPRPQIYPRP
- shrunken log2 fold change: -0.0394

Sequence: RRIRFRPPRLPRPRPRPWNEPRP
- shrunken log2 fold change: -0.173

Sequence: RRIRNRPPRLPRPRPRPGDSPRP
- shrunken log2 fold change: -0.0564

Sequence: RRIRDRPPRLPRPRPRPCWYPRP
- shrunken log2 fold change: -0.369

Sequence: RRIRGRPPRLPRPRPRPAGAPRP
- shrunken log2 fold change: 1.16

Sequence: RRIRCRPPRLPRPRPRPSWSPRP
- shrunken log2 fold change: -0.263

Sequence: RRIRLRPPRLPRPRPRPESSPRP
- shrunken log2 fold change: -0.015

Sequence: RRIRKRPPRLPRPRPRPLPFPRP
- shrunken log2 fold change: -0.11

Sequence: RRIRHRPPRLPRPRPRPLQEPRP
- shrunken log2 fold change: -0.331

Sequence: RRIRLRPPRLPRPRPRPGRHPRP
- shrunken log2 fold change: 0.0767

Sequence: RRIRDRPPRLPRPRPRPRDCPRP
- shrunken log2 fold change: 0.0952

Sequence: RRIRGRPPRLPRPRPRPMIYPRP
- shrunken log2 fold change: 0.0378

Sequence: RRIRNRPPRLPRPRPRPNFHPRP
- shrunken log2 fold change: -0.048

Sequence: RRIRRRPPRLPRPRPRPVDRPRP
- shrunken log2 fold change: 0.0916

Sequence: RRIRCRPPRLPRPRPRPILWPRP
- shrunken log2 fold change: 0.0346

Sequence: RRIRARPPRLPRPRPRPNHNPRP
- shrunken log2 fold change: -0.542

Sequence: RRIRARPPRLPRPRPRPMIKPRP
- shrunken log2 fold change: 0.148

Sequence: RRIRCRPPRLPRPRPRPTRQPRP
- shrunken log2 fold change: 0.503

Sequence: RRIRERPPRLPRPRPRPISGPRP
- shrunken log2 fold change: -0.564

Sequence: RRIRYRPPRLPRPRPRPGKLPRP
- shrunken log2 fold change: -0.0944

Sequence: RRIRQRPPRLPRPRPRPAKTPRP
- shrunken log2 fold change: -0.0724

Sequence: RRIRCRPPRLPRPRPRPNMCPRP
- shrunken log2 fold change: -0.222

Sequence: RRIRVRPPRLPRPRPRPWFHPRP
- shrunken log2 fold change: -0.711

Sequence: RRIRTRPPRLPRPRPRPYKKPRP
- shrunken log2 fold change: -0.317

Sequence: RRIRVRPPRLPRPRPRPTWLPRP
- shrunken log2 fold change: 0.318

Sequence: RRIRRRPPRLPRPRPRPAYSPRP
- shrunken log2 fold change: 0.0936

Sequence: RRIRKRPPRLPRPRPRPAELPRP
- shrunken log2 fold change: 0.552

Sequence: RRIRARPPRLPRPRPRPKCNPRP
- shrunken log2 fold change: 0.0681

Sequence: RRIRERPPRLPRPRPRPKMKPRP
- shrunken log2 fold change: -0.226

Sequence: RRIRGRPPRLPRPRPRPEKLPRP
- shrunken log2 fold change: 0.844

Sequence: RRIRCRPPRLPRPRPRPGITPRP
- shrunken log2 fold change: -0.232

Sequence: RRIRARPPRLPRPRPRPPAGPRP
- shrunken log2 fold change: 0.883

Sequence: RRIRIRPPRLPRPRPRPLPGPRP
- shrunken log2 fold change: -0.0346

Sequence: RRIRNRPPRLPRPRPRPSKLPRP
- shrunken log2 fold change: -0.582

Sequence: RRIRHRPPRLPRPRPRPYMCPRP
- shrunken log2 fold change: -0.536

Sequence: RRIRDRPPRLPRPRPRPDNIPRP
- shrunken log2 fold change: -0.112

Sequence: RRIRTRPPRLPRPRPRPKNPPRP
- shrunken log2 fold change: -0.0748

Sequence: RRIRHRPPRLPRPRPRPWLQPRP
- shrunken log2 fold change: 0.0358

Sequence: RRIRGRPPRLPRPRPRPFWDPRP
- shrunken log2 fold change: 0.322

Sequence: RRIRHRPPRLPRPRPRPQSIPRP
- shrunken log2 fold change: -0.0188

Sequence: RRIRERPPRLPRPRPRPEPYPRP
- shrunken log2 fold change: -0.0697

Sequence: RRIRWRPPRLPRPRPRPCNIPRP
- shrunken log2 fold change: -0.133

Sequence: RRIRWRPPRLPRPRPRPCTCPRP
- shrunken log2 fold change: 0.0236

Sequence: RRIRWRPPRLPRPRPRPCVCPRP
- shrunken log2 fold change: 0.222

Sequence: RRIRLRPPRLPRPRPRPDLAPRP
- shrunken log2 fold change: -0.062

Sequence: RRIRLRPPRLPRPRPRPTKQPRP
- shrunken log2 fold change: 0.103

Sequence: RRIRGRPPRLPRPRPRPQCLPRP
- shrunken log2 fold change: 0.405

Sequence: RRIRERPPRLPRPRPRPHIRPRP
- shrunken log2 fold change: -0.126
